Results taken from patent US7101989 (UNIVERSITY OF NORTH CAROLINA AT CHAPEL HILL, dated 2006).

Biological target: the molecule itself
Assay: SDS-PAGE of outer membranes solubilised at 37 C or 100 C

B1: DsrA (Ducreyi Serum Resistance A protein) of H. ducreyi strain 35000 (other)
chain: QQPPKFAGVSSLYSYEYDYGKGKWTWSNEGGFDIKVPGIKMKPKEWISKQATYLELQHYMPYTPVLVTYAPGVSPSPILLYPMSDPDQLGINRQQLKLNLYSYFNDLRHDFKLKVLDARISKNKQNIDTISKYLLELGTYLDDSYRMMEQNTHNINKLSKELQTGLANQSALSMLVQPNGVGKTSVSAAVGGYRDKTALAIGVGSRITDRFTAKAGVAFNTYNGGMSYGASVGYEF
notes: In Western blots DsrA was denatured, from outer membranes or total cellular proteins; In the vitronectin experiment it was on whole surface-iodinated bacteria and was then solubilised in detergent; It forms multimers of unstated number; also called 30 kDa protein; 30 kDa band
  binding result: binds
